Earlier results as cited in patent US12128089B2 (Slayback Pharma LLC, priority 2022, dated 2024).
Where two headings read alike, the source gives them in different places.

Tests used:
[1] = neutral aqueous solution
[2] = not given; remark: listed apart in the source
[3] = not given; remark: listed apart in the source
[4] = dilute aqueous solutions, random coil conformation

## Glucagon
other
  Half-life in plasma: 3 to 6 min
[1]
  Precipitation after preparation: precipitates within an hour of preparation
[2]; pH less than 3 or greater than 9
  Solubility in aqueous solutions: > 10 mg/mL
[2]; pH range of 4 to 8
  Solubility in aqueous solutions: < 0.1 mg/mL
[3]
  Onset of action post injection: 5 to 20 min
[4]
  α-helix at the C-terminal end: 15%
